US12104173B2, “Method for differentiation of human pluripotent stem cell lines in suspension culture” (AGENCY FOR SCIENCE, TECHNOLOGY AND RESEARCH, priority 2018, dated 2024)

B1: BMP4: bone morphogenic protein; BMP4-based protocol uses 50 ng/ml BMP4 (protein, UniProt P12644 293-408, looked up)
Bone morphogenetic protein 4: SPKHHSQRARKKNKNCRRHSLYVDFSDVGWNDWIVAPPGYQAFYCHGDCPFPLADHLNSTNHAIVQTLVNSVNSSIPKACCVPTELSAISMLYLDEYDKVVLKNYQEMVVEGCGCR

Key:
[1] = system: D9 O-neg hiPSC line; test: CHIR dose: hematopoietic/erythroid differentiation of agitated hPSC-MC aggregates; type: cell-based, human; conditions: optimal dose of CHIR-99021, day 4
[2] = system: hES-3-MC aggregates; test: BMP4-based differentiation of hES-3-MC aggregates from static or agitated hPSC expansion; type: cell-based, human; conditions: BMP4-based protocol; for erythroid cells: starting from 2×10^5 hematopoietic precursors, repeated attempts; for T-bra: Day 2; for KDR: Day 4; for total hematopoietic precursors per well: after 2 weeks of differentiation; for total erythroblast per well: day 28
From the text: To test the hypothesis that agitation condition may be a major factor for variable differentiation, hES-3 that was initially expanded under either static (static human pluripotent stem cell (hPSC) expansion) or agitation (agitated human pluripotent stem cell expansion) condition for 7 days were differentiated under static condition using a BMP4-based differentiation protocol. […] (FIG. 10). […] Like-wise, subsequent generation of erythroblast was also severely impaired in cultures derived from agitated as compared to static hPSC expansion group (total erythroblast per well: 4.11±2.4×10^4 vs 26.2±4.7×10^6, respectively, p=0.005; total CD235a population: 0.51±0.1% vs 51.8±2.0%, p<0.0001) (FIG. 1E).
(§1) Mesoderm induction of hPSC-MC aggregates using BMP4 based protocol has previously been described. One million HPSC-MC aggregates were cultured in Stemline II hematopoietic stem cell expansion medium (Sigma-Aldrich, USA) containing 50 ng/ml of BMP4 and 50 ng/ml of VEGF165 under static condition. 48 hours later, half the medium was removed and replaced with Stemline II medium containing 50 ng/ml of BMP4, 50 ng/ml of VEGF165 and 20 ng/ml of bFGF (all cytokines from STEMCELL Technologies). HPSC-MC aggregates were cultured for a further 48 hours before being used for hematopoietic precursors differentiation.
as §1, with “One” for “Mesoderm induction of hPSC-MC aggregates using BMP4 based protocol has previously been described. One”, “VEGF165.” for “VEGF165 under static condition.”, “STEMCELL.” for “STEMCELL”, “precursor expansion.” for “precursors differentiation.”
HPSC-MC aggregates were dissociated into single cells by treatment with TrypLE. Express (ThermoFisher Scientific) for 5 minutes at 37° C., passed through 40 μm cell strainer (Greiner Bio-one), centrifuged at 1300 rpm for 3 minutes to pellet cells, and rinsed once with phosphate buffered saline (PBS) before re-suspension in Stemline II medium. Two hundred thousand cells in 100 μl of Stemline II medium were transferred to a 6-well ultra-low attachment plate and cultured with Blast growth medium (BGM) for 2 weeks in static conditions as detailed herein.
Hematopoietic precursors were mixed with equal volume of Stemline II medium containing 50 ng/ml of SCF (STEMCELL. Technologies) and 3 U/ml EPO (Peprotech, USA), for an additional 7 days. Subsequently, cells were diluted 10-fold with PBS and pelleted by centrifugation at 3000 rpm for 10 minutes. Erythroblast cells were seeded at a concentration of 2.5×10^5 cells/ml in 3 ml of Stemline II media containing 1× Serum Replacement 3 (Sigma-Aldrich), 0.3% v/v Ex-CYTE growth enhancement media supplement (Merck, USA), 100 ng/ml SCF, 3 U/ml EPO, 1 μM hydrocortisone (Sigma-Aldrich), 200 μg/ml holo-transferrin (MP Biomedicals) and 1× penicillin-streptomycin (ThermoFisher Scientific) in 6-well ultra-low attachment plates under static condition. Cells were re-suspended in fresh media every 4 days and reseeded at 2.5×10^5cells/m=l when cell concentrations exceeded 2×10^6cells/ml. Cumulative fold-expansion was calculated by multiplying fold-expansion achieved between passaging of cells over the course of experiment(s).
For flow cytometric analysis of mesoderm and hematopoietic surface markers, cells were incubated for 15 minutes at room temperature with 1:50 diluted direct-conjugated antibodies. The following human antibodies were used: T-brachyury-FITC (R&D Systems), KDR-PE (Miltenyi Biotec), CD31-PE, CD43-FITC, CD 45-PE, CD71-APC, CD235a-FITC (all from BD Biosciences, USA). The following antibodies were used as isotype-controls: mouse IgG1-FITC and PE (Miltenyi Biotec, Germany), mouse IgG2bk-FITC and mouse IgG2ak-APC (BD Biosciences). […]

| Molecule | Mesoderm induction % KDR+ PDGFRα− [1] [%] | erythroid cells ([2]; MC-aggregates expanded in agitation condition) | erythroid cells ([2]; MC-aggregates expanded in static condition) | total CD235a population ([2]; agitated hPSC expansion) [%] | T-bra ([2]; agitated hPSC expansion) [%] | KDR ([2]; agitated hPSC expansion) [%] | total hematopoietic precursors per well ([2]; agitated hPSC expansion) | total erythroblast per well ([2]; agitated hPSC expansion) | total CD235a population ([2]; static hPSC expansion) [%] | T-bra ([2]; static hPSC expansion) [%] | KDR ([2]; static hPSC expansion) [%] | total hematopoietic precursors per well ([2]; static hPSC expansion) | total erythroblast per well ([2]; static hPSC expansion) |
| --- | --- | --- | --- | --- | --- | --- | --- | --- | --- | --- | --- | --- | --- |
| Cc1c[nH]c(-c2cnc(NCCNc3ccc(C#N)cn3)nc2-c2ccc(Cl)cc2Cl)n1 [CHIR-99021, 6-[[2-[[4-(2,4-Dichlorophenyl)-5-(5-methyl-1H-imidazol-2-yl)-2-pyrimidinyl]amino]ethyl]amino]-3-pyridinecarbonitrile] | 20.9 | – | – | – | – | – | – | – | – | – | – | – | – |
| B1 | – | 0.004-4.2×10^7 erythroid cells | 0.25-7.3×10^7 erythroid cells | 0.51±0.1 | 0.50±0.02 | 1.1±0.12 | 1.39×10^5±2.18×10^4 per well | 4.11±2.4×10^4 per well | 51.8±2.0 | 32.6±1.2 | 27.9±3.3 | 5.77×10^6±6.30×10^5 per well | 26.2±4.7×10^6 per well |
